System: Lenti-X 293T cells
Assay: YFP fluorescence quenching anion reporter plate reader assay of engineered receptors stimulated with acetylcholine or a non-native ligand
Format: cell-based
Procedure, shortened: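 Lenti-X 293T cells carrying a YFP anion reporter were transiently transfected with channel DNA and assayed the next day in HEPES-buffered ECS at pH 7.2. Ligand (acetylcholine or non-native ligand) was added in NaI-substituted ECS. Percent quench was the mean of the last 10 s relative to the 15 s pre-addition baseline.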

B1: CODA952: engineered chimeric LGIC receptor, Y140I in SEQ ID NO: 33 (protein)
chain: MRCSPGGVWLALAASLLHVSLQGEFQRKLYKELVKNYNPLERPVANDSQPLTVYFSLSLLQIMDVDEKNQVLTTNIWLQMSWTDHYLQWNVSEYPGVKTVRFPDGQIWKPDILLYNSADERFDATFHTNVLVNSSGHCQILPPGIFKSSCPMDLKNFPMDVQTCKLKFGSWSYGGWSLDLQMQEADISGYIPNGEWDLVGIPGKRSERFYECCKEPYPDVTFTVTMRRRMGYYLIQMYIPSLLIVILSWISFWINMDAAPARVGLGITTVLTMTTQSSGSRASLPKVSYVKAIDIWMAVCLLFVFSALLEYAAVNFVSRQHKELLRFRRKRRHHKSPMLNLFQEDEAGEGRFNFSAYGMGPACLQAKDGISVKGANNSNTTNPPPAPSKSPEEMRKLFIQRAKKIDKISRIGFPMAFLIFNMFYWIIYKIVRREDVHNQ
modifications: synthetic sequence of chimeric LGIC
YFP fluorescence quenching using CNL001 (1 nM CNL001, first column): 0.368% | YFP fluorescence quenching using CNL001 (1 nM CNL001, second column): −1.976% | YFP fluorescence quenching using TC-5619/Bradanicline (3 nM brd): −2.45% | YFP fluorescence quenching using Varenicline (3 nM var, first column): −22.522 | YFP fluorescence quenching using Varenicline (3 nM var, second column): −18.173 | YFP fluorescence quenching using CNL001 (10 nM CNL001, first column): −3.923% | YFP fluorescence quenching using CNL001 (10 nM CNL001, second column): 4.348% | YFP fluorescence quenching using TC-5619/Bradanicline (30 nM brd): 66.97% | YFP fluorescence quenching using Facinicline (30 nM fac): −8.83 | YFP fluorescence quenching using Varenicline (30 nM var, first column): −15.306 | YFP fluorescence quenching using Varenicline (30 nM var, second column): −12.832 | YFP fluorescence quenching using CNL001 (50 nM CNL001, first column): 74.107% | YFP fluorescence quenching using CNL001 (50 nM CNL001, second column): 75.866% | YFP fluorescence quenching using ABT-126 (50 nM abt): −12.34% | YFP fluorescence quenching using CNL001 (100 nM CNL001, first column): 80.323% | YFP fluorescence quenching using CNL001 (100 nM CNL001, second column): 81.996% | YFP fluorescence quenching using CNL002 (100 nM CNL002): 32.58% | YFP fluorescence quenching using ABT-126 (100 nM abt): −11.57% | YFP fluorescence quenching using AZD-0328 (100 nM azd0328): −12.96% | YFP fluorescence quenching using ABT-126 (300 nM abt): −5.21% | YFP fluorescence quenching using AZD-0328 (300 nM azd0328): −13.21% | YFP fluorescence quenching using TC-5619/Bradanicline (300 nM brd): 78.48% | YFP fluorescence quenching using Facinicline (300 nM fac): 51.6 | YFP fluorescence quenching using Varenicline (300 nM var, first column): −14.671 | YFP fluorescence quenching using Varenicline (300 nM var, second column): −17.016 | YFP fluorescence quenching using Varenicline (500 nM var, first column): −16.713 | YFP fluorescence quenching using Varenicline (500 nM var, second column): −18.893 | YFP fluorescence quenching using CNL001 (1 uM CNL001, first column): 83.489% | YFP fluorescence quenching using CNL001 (1 uM CNL001, second column): 82.208% | YFP fluorescence quenching using CNL002 (1 uM CNL002): 69.08% | YFP fluorescence quenching using ABT-126 (1 uM abt): 3.93% | YFP fluorescence quenching using TC-6987 (1 uM tc6987): 6.03 | YFP fluorescence quenching using Varenicline (1 uM var, first column): −15.847 | YFP fluorescence quenching using Varenicline (1 uM var, second column): −16.236 | YFP fluorescence quenching using TC-6987 (10 uM tc6987): 2.25 | YFP fluorescence quenching using CNL002 (30 uM CNL002): 73.28% | YFP fluorescence quenching using AZD-0328 (30 uM azd0328): 68.5% | YFP fluorescence quenching using Facinicline (30 uM fac): 71.01 | YFP fluorescence quenching using TC-6987 (500 uM tc6987): −0.24 | percent quench of YFP fluorescence, 30 nM TC-6683 (TC-6683 30 nM): −27.7% | percent quench of YFP fluorescence, 300 nM TC-6683 (TC-6683 300 nM): −26.87% | percent quench of YFP fluorescence, 3 uM TC-6683 (TC-6683 3 uM): −31.2% | percent quench of YFP fluorescence, 30 uM TC-6683 (TC-6683 30 uM): −33.12% | percent quench of YFP fluorescence, 100 uM TC-6683 (TC-6683 100 uM): −24.67% | percent quench of YFP fluorescence, 10 uM ach (acetylcholine 10 uM): −1.97% | percent quench of YFP fluorescence, 100 uM ach (acetylcholine 100 uM): 2.79% | percent quench of YFP fluorescence, 1 mM ach (acetylcholine 1 mM): 58.81% | percent quench of YFP fluorescence, 3 mM ach (acetylcholine 3 mM): 66.9%
